{"source": "patent US8124835B2", "about": "“Acyl-coa-dependent diacylglycerol acyltransferas 1 (DGAT1) gene from Tropaeolum majus, protein encoded thereby and uses thereof” (National Research Council of Canada, priority 2006, dated 2012)", "key": {"[1]": {"tested_on": "Arabidopsis mutant line AS11", "assay": "Complementation of Arabidopsis AS11 DGAT mutant by seed-specific expression of TmDGAT1", "type": "in vivo, Arabidopsis thaliana", "conditions": "homozygous T3 seed lines, napin promoter", "protocol": "FIG. 9. Complementation of A. thaliana AS11 mutant seed oil and fatty acid profile by expression of TmDGAT1. Transformation of Arabidopsis mutant line AS11 with the TmDGAT1 cDNA under the control of a napin promoter leads to a restoration of (A) fatty acid composition profile of the transgenic lines and (B) the WT level oil content. Total oil content (as percentage of mature seed dry weight) and fatty acid composition (% wt/wt) were determined on the seed oil extracted from T3 seeds of Arabidopsis pSE:WT and pSE:AS11 (empty plasmid) controls and from napin:TmDGAT1 AS11 transgenics lines.\nThe final binary vector (napin/DGAT/nos) was verified and electroporated into Agrobacterium tumefaciens cells strain GV3101 containing helper plasmid pMP90 (Koncz and Schell, 1986). Plasmid integrity was verified by DNA sequencing following its re-isolation from A. tumefaciens and transformation into E. coli. […]\nThe coding region of the TmDGAT1 (SEQ. ID. NO: 2) was cloned into a pSE vector behind the seed-specific napin promoter. […] At the same time several independent plasmid only control AS11 transgenic (pSE vector without DGAT1 insert) lines, as well as napin:TmDGAT1 in WT and pSE in WT transgenic lines were propagated and analyzed. […]"}, "[2]": {"tested_on": "wild type (WT) Arabidopsis", "assay": "Over-expression of TmDGAT1 in wild-type Arabidopsis", "type": "in vivo, Arabidopsis thaliana", "from_the_text": "FIG. 10. Over expression of the TmDGAT1 in Arabidopsis. Effect of transformation of Arabidopsis with the TmDGAT1 cDNA under the control of a napin promoter on (A) oil content and (B) average 1000-seed weight. Total oil content (as percentage of mature seed dry weight) and seed weight are shown for pSE (empty plasmid) in WT Arabidopsis (white bars), non-transformed WT Arabidopsis (black bars) and napin:TmDGAT1 transgenic homozygous T3 Arabidopsis lines (gray bars represent transgenic lines with a single insert and hatched bars represents transgenic lines with multiple inserts). (C) Fatty acid composition is shown for pSE (empty plasmid) in WT Arabidopsis and napin:TmDGAT1 transgenic homozygous T3 Arabidopsis lines. Homozygous T3 napin:TmDGAT1 lines were analyzed in triplicate, about 200 seeds per sample, accurately counted and weighed. For the plasmid only pSE in WT transgenic and non-transformed WT controls, ≧8 individual seed lots were similarly analyzed; the averaged values are presented.\nFIG. 11. […]\nTransgenic plants were selected and analyzed essentially as described previously (Jako et al., 2001; Mietkiewska et al., 2004). […]\nSegregation analyses were performed to further confirm and select those transformants containing a single copy of the inserted fragment. […] Plants that contained the insertion (as shown by the presence of a PCR product from a napin/NOS junction using NN3 primer (5′-[…]-3′; SEQ ID NO: 22) and NN4 primer (5′-[…]-3′; SEQ ID NO: 23) and that carry a single locus insertion (as determined by a 3:1 segregation ratio of T2 seeds on kanamycin) were identified. Southern analyses were performed to further confirm and select those transformants containing single vs. multiple copies of the inserted fragment. DNA samples were digested with restriction enzymes KpnI (or BglII), resolved by electrophoresis on a 1% (w/v) agarose gel, and Southern blotting performed using a nylon filter (Hybond N+, Amersham) according to Sambrook et al. (1989). […]"}}, "data": [{"molecule": "TmDGAT1: Tropaeolum majus acyl-CoA-dependent diacylglycerol acyltransferase 1, 518 amino acids (SEQ ID NO: 3), encoded by ORF SEQ ID NO: 2 (protein, listed as Tropaeolum majus) MAVAESSQNTTTMSGHGDSDLNNFRRRKPSSSVIEPSSSGFTSTNGVPATGHVAENRDQDRVGAMENATGSVNLIGNGGGVVIGNEEKQVGETDIRFTYRPSFPAHRRVRESPLSSDAIFKQSHAGLFNLCIVVLIAVNSRLIIENLMKYGWLIDTGFWFSSRSLGDWSIFMCCLTLPIFPLAAFIVEKLVQRNHISELVAVLLHVIVSTAAVLYPVIVILTCDSVYMSGVVLMLFGCIMWLKLVSYAHTSSDIRTLAKSGYKGDAHPNSTIVSCSYDVSLKSLAYFMVAPTLCYQPSYPRSSCIRKGWVVRQFVKLIVFIGLMGFIIEQYINPIVRNSKHPLKGDFLYAIERVLKLSVPNLYVWLCMFYSFFHLWLNILAELLRFGDREFYKDWWNAKTVAEYWKMWNMPVHRWMVRHLYFPCLRNGIPKEGAIIIAFLVSGAFHELCIAVPCHVFKLWAFIGIMFQVPLVLITNYLQEKFSNSMVGNMIFWFIFCILGQPMCVLLYYHDLINLKEK", "values": [{"measurement": "TAG levels of AS11 seed after expression", "setting": "[1]", "result": "at least as high as that found in wild type Arabidopsis"}, {"measurement": "fatty acid composition of AS11 seed oil after expression", "setting": "[1]", "result": "restoring the proportions of 18:1, 20:1 and 18:3 to give a WT profile"}, {"measurement": "net increase in oil content", "setting": "[2]; best line (TD/WT 13-6)", "result": 44, "unit": "%"}, {"measurement": "increase in DGAT activity", "setting": "[2]; best line (TD/WT 13-6), mid-developing seed", "result": "two-fold"}, {"measurement": "increase in total proportion of mono-unsaturated fatty acids (18:1+20:1) in seed TAGs", "setting": "[2]; data not shown", "result": "2-3%"}]}]}
